For assay [1], the system named is CRBN C-terminal domain (CTD). Put plainly: CRBN-CTD MG-PACE circuit transcriptional activation (luminescence). The class given is cell-based, human. Conditions: at 50 μM PT-179.
In another assay the test system is degron-tagged eGFP. Put plainly: Flow-based degradation assay, Degron-eGFP-IRES-mCherry in HEK293T cells. The class given is cell-based, human. Conditions: HEK293T, overnight PT-179 treatment. The procedure: A flow-based degradation assay was then performed using a stably transduced Degron-eGFP-IRES-mCherry construct in HEK 293T cells to determine the ability of the evolved degrons to […] (see FIG. 7). Concentration of PT-179 is shown on the x-axis. Degrons indicated in the key were fused to the N-terminus of eGFP allowing measurement of eGFP:mCherry ratios for assessing degradation.
To characterize the evolved degrons, stable HEK293T cell lines expressing degron-tagged eGFP were generated (FIG. 19A). […] The final variant, SD36, potently degraded GFP in response to PT-179 (DC50=14 nM).

Sequence of degron-tagged eGFP (Q96SW2 24-442 limits assumed): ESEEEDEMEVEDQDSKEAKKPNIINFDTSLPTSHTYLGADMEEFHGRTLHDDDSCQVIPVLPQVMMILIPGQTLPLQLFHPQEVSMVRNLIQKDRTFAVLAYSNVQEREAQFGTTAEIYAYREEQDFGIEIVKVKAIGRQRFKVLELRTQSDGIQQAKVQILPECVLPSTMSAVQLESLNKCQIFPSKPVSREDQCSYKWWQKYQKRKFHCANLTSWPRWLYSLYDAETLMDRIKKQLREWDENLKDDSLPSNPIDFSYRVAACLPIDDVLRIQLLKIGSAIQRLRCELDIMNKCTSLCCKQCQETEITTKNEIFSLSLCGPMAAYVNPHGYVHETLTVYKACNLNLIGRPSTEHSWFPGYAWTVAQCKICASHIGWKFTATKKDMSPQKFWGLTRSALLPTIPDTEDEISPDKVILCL

B1: SD20: Evolved degron SEQ ID NO: 21: S10R E14D P16L E20K Q28E E42V P44T F45V R57K D58R A59C L60F *61VI (protein)
chain: FNVLMVHKRRHTGDRLLQCKICGFTCREKGNLLRHIKLHTGVKTVKCHLCNYACQRKRCFVI
Consider B1, for which the “luciferase expression, activation” value in assay [1] is on record as 24 fold. The “GFP degradation in response to PT-179” value in the assay with degron-tagged eGFP is “did not trigger GFP degradation”.
